Experimental data taken from patent publication US20250057951A1, “DISCERNIBLE CELL SURFACE PROTEIN VARIANTS OF CD117 FOR USE IN CELL THERAPY” (UNIVERSITÄT BASEL, priority 2021, published 2025).

Experiments:
variants of CD117 = assay: Blocking of SCF-induced CD117 phosphorylation (Tyr719 ELISA), TF-1 cells with CD117 variants; assay type: cell-based, human; conditions: 0.5 μg/ml antibody 30 minutes; 100 ng/ml SCF 5 minutes; same for E73K, E73Y, S123F (data not shown)
CD117 = assay: Blocking of SCF-induced CD117 phosphorylation (Tyr719 ELISA), wild type TF-1 cells; assay type: cell-based, human; conditions: 0.5 ug/mL antibody or 500 nM avapritinib; 100 ng/ml SCF 5 minutes
CD117+ myeloid cells = assay: Depletion experiment in NSG mice with E73K gene-edited HSPCs; assay type: in vivo; conditions: 25 mg/kg i.v. days 8, 10, 12, 14; 16 weeks; vs isotype control
Method: In another experiment, NSG mice (Jackson Laboratories) were sub-lethally irradiated one day before injection with 1 Mio gene-edited HSPCs carrying a E73K variant of CD117. 8, 10, 12 and 14 days after cell injection mice received 25 mg/kg antibody Refmab #1-Bert or 25 mg/kg isotope control antibody i.v. per dose. 16 weeks later the mice were euthanized, and blood, spleen and bone marrow were analyzed by FACS.
CD117+ myeloid cells were identified by FACS as live/hCD45+/CD33+/CD117+. […] Clone 104D2 was used as an expression control. Cells were classified as not edited (104D2+ and SR-1+) or E73K edited (104D2+ but SR-1−) based on double staining with anti-CD117 clone SR-1 and anti-CD117 clone 104D2.

CD34+ progenitor cells = assay: Additional HSC depletion experiment in NBSGW mice with edited HSPCs; assay type: in vivo; conditions: 4 mg/kg i.v. days 7, 9, 11, 12, 16 weeks, vs isotype control
Method: (§1) Depletion of human HSCs in mice using various mAbs was adapted from Pang et al. (Blood (2019) 133:2069-78).
NBSGW mice (Jackson Laboratories) were injected with 1 Mio HSPCs from 2 different donors carrying a E73K, S123K or D121K variant of CD117. Control groups of mice received unedited electroporation control HSPCs. 7, 9, 11 and 12 days after cell injection mice received 4 mg/kg antibody Refmab #1-Bert per dose i.v. 16 weeks later the mice were euthanized and blood, spleen and bone marrow were analyzed by FACS. To identify unedited and edited cells the CD117-specific antibody clones 104D2 and SR-1 were used. […] Cells were classified as unedited (104D2+ and SR-1+) or edited (104D2+ but SR-1−) based on double staining with both anti-CD117 clones.

human HSCs = assay: HSC depletion in NBSGW mice engrafted with human HSPCs; assay type: in vivo; conditions: 25 mg/kg i.v. days 8, 10, 12, 14; analysis 16 weeks later; vs isotype control; live/hCD45+/CD34+/CD38−/CD45RA−/CD90+
Method: as §1
NBSGW mice (Jackson Laboratories) were injected with 1 Mio HSPCs. 8, 10, 12 and 14 days after cell injection mice received 25 mg/kg antibody Refmab #1-Bert per dose i.v. 16 weeks later the mice were euthanized and blood, spleen and bone marrow were analysed by FACS. […] HSCs were identified by FACS as live/hCD45+/CD34+/CD38−/CD45RA−/CD90+.

B1: Refmab #1-Bert: improved version of Refmab #1, VH SEQ ID 15, VL SEQ ID 63 (antibody, V domains shown)
VH: QVQLQQPGAELVKPGASVKMSCKASGYTFTSYNMHWVKQTPGQGLEWIGVIYSGNGDTSYNQKFKGKATLTADKSSSTAYMQINSLTSEDSAVYYCARERDTRFGNWGQGTLVTVSA
VL: EIVLTQSPSSLSASVGDRVTITCRASESVDIYGESFMHWYQQKPGKAPKLLIYLASNLESGVPSRFSGSGSGTDFTLTISSLQPEDFATYYCQQNKEEPYTFGQGTKLEIKRTV
modifications: Refmab #1 VH
- blocking of SCF-dependent CD117 phosphorylation, D121K and S123K variants (variants of CD117): unaffected
- blocking of SCF-induced phosphorylation, wild type cells (CD117): blocked
- effect on E73K variant CD117+ myeloid cells in bone marrow (CD117+ myeloid cells): enrichment of E73K variant cells
- effect on unedited CD117+ myeloid cells in bone marrow (CD117+ myeloid cells): depletion of unedited cells
- effect on E73K, D121K and S123K-edited cells (CD34+ progenitor cells): enrichment of E73K, D121K and S123K-edited variant cells
- effect on unedited CD34+ progenitor cells (CD34+ progenitor cells; live/hCD45+/CD34+/CD38−): depletion of unedited CD34+ progenitor cells
- bone marrow HSC depletion (human HSCs): in vivo depletion of HSCs
